Source: patent US6491893B1, “Compounds for targeting and imaging infection and inflammation” (Biostream, Inc., priority 1999, dated 2002)
Like-named read-outs stand apart in the source and are kept apart here.

Key:
[1] = cited from earlier work
[2] = cited from earlier work; remark: listed apart in the source
[3] = tested on: intramuscular bacterial infections (E. coli, left posterior thigh); format: in vivo, New Zealand white rabbits; conditions: from biodistribution data
Description: (§1) In order to label G-CSF with radioindium (^111In), G-CSF was conjugated with diethylenetriaminepentacetic acid (DTPA) via the active ester. DTPA conjugated G-CSF was labeled with In-111 and injected into rabbits bearing intramuscular bacterial infections. Two New Zealand white rabbits weighing approximately 2-3 kg were injected in their left posterior thigh with a 0.5 ml suspension of ˜10^9 E. coli for infection imaging and biodistribution studies. Animals were injected with In-111-DTPA-G-CSF at 24 hr after bacterial injection, when the animals were judged to have moderate infections by palpation.
(§2) At 4 and 18 hours following injection of the In-111-DTPA-G-CSF, the animals were anesthetized with ketamine/xylazine (15.0 and 1.5 mg/kg) and scintigrams were acquired using a large field of view gamma camera equipped with a parallel hole medium energy collimator. Regions-of-interest (ROI's) were drawn over the area of infection and the contralateral normal muscle and target-to-background (T/B) ratios were calculated. After acquiring the final images, the animals were sacrificed with an over dose of sodium pentobarbital and biodistribution was determined. For comparison with the imaging results, infected to normal muscle and pus to normal muscle ratios were calculated from biodistribution data.

[4] = tested on: intramuscular bacterial infections (E. coli, left posterior thigh); assay: Gamma camera imaging, T/B ratios from ROI analysis of scintigrams (Example 1, Table 1); format: in vivo, New Zealand white rabbits; conditions: for average Target:Background (T/B) ratio, gamma camera images: Average of 2 rabbits
Description: as §1
as §2, with “[…],” for “At 4 and 18 hours following injection of the In-111-DTPA-G-CSF,”

[5] = after intravenous administration over 30 min
[6] = Average, 18 Hours Post Injection
[7] = Rabbit #1, 18 Hours Post Injection
[8] = Rabbit #2, 18 Hours Post Injection

GM-CSF: colony stimulating factor promoting growth of progenitors of several myeloid lines
distribution half-life (T sub ½ alpha) [1, 5]: 5 to 15 min | elimination phase (T sub ½ Beta) [1, 5]: 1 to 9 h | time to peak serum concentration ([1]; after single subcutaneous bolus injections): ≤ 4 h | elimination half-life ([1]; single subcutaneous bolus injections, doses of 10 mμ g/kg): 174 min | serum concentration achieved ([1]; subcutaneous doses of 5-10 mμ g/kg, for 8-24 h): >= 10 ng/mL | time serum concentrations >=10 ng/mL are achieved ([1]; subcutaneous doses of 5-10 mμ g/kg): 8 to 24 h

B1: G-CSF: full length protein, polypeptide or peptide corresponding to natural G-CSF that binds to a CSF receptor (protein, UniProt P09919 31-207, looked up)
Granulocyte …: TPLGPASSLPQSFLLKCLEQVRKIQGDGAALQEKLVSECATYKLCHPEELVLLGHSLGIPWAPLSSCPSQALQLAGCLSQLHSGLFLYQGLLQALEGISPELGPTLDTLQLDVADFATTIWQQMEELGMAPALQPTQGAMPAFASAFQRRAGGVLVASHLQSFLEVSYRVLRHLAQP
serum concentration maintained ([2]; after doses of 5-10 μg/kg, for up to 16 h): > 10 ng/mL | time serum concentrations of >10 ng/mL are maintained ([2]; after doses of 5-10 mμ g/kg): up to 16 h | time C sub max values are maintained ([2]; after short (20-30 min) intravenous infusions): 30 to 60 min | estimated terminal half-life ([2]; after short intravenous infusions, doses up to 60 μg/kg): 45 to 432 min | serum concentration by 24 h ([2]; after single subcutaneous injections, by 24 h): < 10 % C sub max | time to peak serum concentration ([2]; after single subcutaneous injections): 4 to 6 h

B2: In-111-DTPA-GCSF: G-CSF conjugated with diethylenetriaminepentacetic acid (DTPA) via the active ester and labeled with In-111 (conjugate, UniProt P09919 31-207, looked up)
Granulocyte …: TPLGPASSLPQSFLLKCLEQVRKIQGDGAALQEKLVSECATYKLCHPEELVLLGHSLGIPWAPLSSCPSQALQLAGCLSQLHSGLFLYQGLLQALEGISPELGPTLDTLQLDVADFATTIWQQMEELGMAPALQPTQGAMPAFASAFQRRAGGVLVASHLQSFLEVSYRVLRHLAQP
modifications: DTPA conjugate labeled with In-111
Infected/normal muscle ratio [3, 6]: 26.24 | Pus/normal muscle ratio [3, 6]: 59.16 | Infected/normal muscle #1 ratio [3, 7]: 36.89 | Infected/normal muscle #2 ratio [3, 7]: 21.54 | Infected/normal muscle #3 ratio [3, 7]: 20.11 | Infected/normal muscle #4 ratio [3, 7]: 20.95 | Infected/normal muscle #5 ratio [3, 7]: 15.63 | Pus/normal muscle ratio [3, 7]: 23.56 | Infected/normal muscle #1 ratio [3, 8]: 39.21 | Infected/normal muscle #2 ratio [3, 8]: 26.17 | Infected/normal muscle #3 ratio [3, 8]: 37.03 | Infected/normal muscle #4 ratio [3, 8]: 28.44 | Infected/normal muscle #5 ratio [3, 8]: 16.42 | Pus/normal muscle ratio [3, 8]: 94.76 | T/B ratio calculated from ROI analysis of scintigrams ([4]; 3 hour after injection): 3.567 | T/B ratio calculated from ROI analysis of scintigrams ([4]; 17 hours after injection): 11.87 | average Target:Background (T/B) ratio, gamma camera images ([4]; 4 hours post injection): 3.567 | average Target:Background (T/B) ratio, gamma camera images ([4]; 18 hours post injection): 11.87 | Infected to normal tissue ratio from gamma camera images ([4]; Rabbit #1, 4 hours post injection): 3.359 | Infected to normal tissue ratio from gamma camera images ([4]; Rabbit #1, 18 hours post injection): 8.643 | Infected to normal tissue ratio from gamma camera images ([4]; Rabbit #2, 4 hours post injection): 3.775 | Infected to normal tissue ratio from gamma camera images ([4]; Rabbit #2, 18 hours post injection): 15.10 | localization at sites of infection (in words) ([4]; rabbits with E. coli infection): effective agent for localizing sites of infection
